Among the data in article PMC11417369, “DNA sequence and chromatin differentiate sequence-specific transcription factor binding in the human malaria parasite Plasmodium falciparum” are binding signal values, retold here.

To fix the notation:
T1: SIP2 D1 (Plasmodium falciparum, UniProt C6KSN9 177-235)
T1 sequence: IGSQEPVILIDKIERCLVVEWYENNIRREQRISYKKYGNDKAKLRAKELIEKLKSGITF

T2: HDP1 homeodomain-like (Plasmodium falciparum, UniProt Q8IKH4 2990-3078)
T2 sequence: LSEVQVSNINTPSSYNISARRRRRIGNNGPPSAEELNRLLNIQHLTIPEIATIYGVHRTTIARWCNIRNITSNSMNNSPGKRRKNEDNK

B1: GTGCAC_negctrl_site490 (dsDNA)
DNA 1: TGTATAAAAAGAAAAAATCGTATGTGTTATCAAAAA
DNA 2: TTTTTGATAACACATACGATTTTTTCTTTTTATACA
B2: GTGCAC_negctrl_site278 (dsDNA)
DNA 1: TTTTTTACATACAGAAATATATAATATAAAATAAAT
DNA 2: ATTTATTTTATATTATATATTTCTGTATGTAAAAAA
B3: GTGCAC_site9624 (dsDNA)
DNA 1: GACAAATAATAAAAGGTGCATTATACTTAACAAAAA
DNA 2: TTTTTGTTAAGTATAATGCACCTTTTATTATTTGTC
B4: GTGCAC_site10153 (dsDNA)
DNA 1: AAAATGTAATATTGGGTGCACAATAAGTTTGATGTC
DNA 2: GACATCAAACTTATTGTGCACCCAATATTACATTTT
B5: GTGCAC_negctrl_site701 (dsDNA)
DNA 1: ATTAATATGAAACGATTATAAGAAAGAAAAGAAATG
DNA 2: CATTTCTTTTCTTTCTTATAATCGTTTCATATTAAT
B6: GTGCAC_site9957 (dsDNA)
DNA 1: TTTTAATGTACCAGTGTGCACCTTGCGTACATATTA
DNA 2: TAATATGTACGCAAGGTGCACACTGGTACATTAAAA
B7: GTGCAC_site10073 (dsDNA)
DNA 1: AAATACTGTACAAAGGTGCATAAAAAGTGGGGCATA
DNA 2: TATGCCCCACTTTTTATGCACCTTTGTACAGTATTT
B8: GTGCAC_site10578 (dsDNA)
DNA 1: CATATTGTCATTCTGGTGCACTTTTTTTTTTTTTTT
DNA 2: AAAAAAAAAAAAAAAGTGCACCAGAATGACAATATG
B9: GTGCAC_negctrl_site129 (dsDNA)
DNA 1: AATTTAATCCGTAATAAGAAAAGAAAAAAAAAAAGA
DNA 2: TCTTTTTTTTTTTCTTTTCTTATTACGGATTAAATT
B10: GTGCAC_site9431 (dsDNA)
DNA 1: TCTTCTTTAAAAGAGGTGCACTATATAATGTGATTA
DNA 2: TAATCACATTATATAGTGCACCTCTTTTAAAGAAGA
B11: GTGCAC_negctrl_site670 (dsDNA)
DNA 1: TAAGACTATTAAAAAATTGAGTACATGAACTGTTCA
DNA 2: TGAACAGTTCATGTACTCAATTTTTTAATAGTCTTA
B12: GTGCAC_site10368 (dsDNA)
DNA 1: ACATGTGAATTTTAGGTGCACTTGTAATTTAACATT
DNA 2: AATGTTAAATTACAAGTGCACCTAAAATTCACATGT
B13: GTGCAC_site9981 (dsDNA)
DNA 1: ATAATGTTCACATAGGTGCACTAATATAATTATCCA
DNA 2: TGGATAATTATATTAGTGCACCTATGTGAACATTAT
B14: GTGCAC_site10051 (dsDNA)
DNA 1: AATAAATTAAAACAGGTGCACTATATTACACACGCT
DNA 2: AGCGTGTGTAATATAGTGCACCTGTTTTAATTTATT
B15: GTGCAC_site9422 (dsDNA)
DNA 1: CACTCTTAAAATAAGGTGCACTATATAACGTGATTA
DNA 2: TAATCACGTTATATAGTGCACCTTATTTTAAGAGTG
B16: GTGCAC_negctrl_site669 (dsDNA)
DNA 1: AAAAAAAAGTATGATTCTAAATTTATGTATATATAA
DNA 2: TTATATATACATAAATTTAGAATCATACTTTTTTTT
B17: GTGCAC_negctrl_site283 (dsDNA)
DNA 1: ATAATTCCAAGAATTTCATATATCTGAATTTTAGGT
DNA 2: ACCTAAAATTCAGATATATGAAATTCTTGGAATTAT
B18: GTGCAC_site10700 (dsDNA)
DNA 1: ATTATACAAATTGAGGTGCATGAAACAAAATATGAA
DNA 2: TTCATATTTTGTTTCATGCACCTCAATTTGTATAAT
B19: GTGCAC_site9947 (dsDNA)
DNA 1: TATTTGAAAACATAGGTGCACATTATTTTATAATCT
DNA 2: AGATTATAAAATAATGTGCACCTATGTTTTCAAATA
B20: GTGCAC_negctrl_site728 (dsDNA)
DNA 1: TTTTGTAAAATTAATTTATTATACATATATATTTCT
DNA 2: AGAAATATATATGTATAATAAATTAATTTTACAAAA
B21: GTGCAC_negctrl_site613 (dsDNA)
DNA 1: TACTCAAAAATTAATTAGCATAATATATATAAAAAT
DNA 2: ATTTTTATATATATTATGCTAATTAATTTTTGAGTA
B22: GTGCAC_negctrl_site170 (dsDNA)
DNA 1: AATATATTTTGATATGAACAATTAATAATTTCAAAT
DNA 2: ATTTGAAATTATTAATTGTTCATATCAAAATATATT
B23: GTGCAC_negctrl_site45 (dsDNA)
DNA 1: TTATGTTGCGAGTTCTTAAGATATAAAAAATTCTTC
DNA 2: GAAGAATTTTTTATATCTTAAGAACTCGCAACATAA
B24: GTGCAC_site10418 (dsDNA)
DNA 1: CTTTTCTATTTTTTCGTGCACTATAAATATTTTAAT
DNA 2: ATTAAAATATTTATAGTGCACGAAAAAATAGAAAAG
B25: GTGCAC_site9671 (dsDNA)
DNA 1: GTTACAGAGAATGTTGTGCACATATCAATAATATAT
DNA 2: ATATATTATTGATATGTGCACAACATTCTCTGTAAC
B26: GTGCAC_site10054 (dsDNA)
DNA 1: GTCTATATATTTTAGGTGCAACGTAAATGTAAAAAT
DNA 2: ATTTTTACATTTACGTTGCACCTAAAATATATAGAC
B27: GTGCAC_site10340 (dsDNA)
DNA 1: ATTATTATTAATCTTGTGCACATATATTTTAATTAG
DNA 2: CTAATTAAAATATATGTGCACAAGATTAATAATAAT
B28: GTGCAC_site10523 (dsDNA)
DNA 1: TCGTTTCATAATATTGTGCACATATATATTTACAAT
DNA 2: ATTGTAAATATATATGTGCACAATATTATGAAACGA
B29: GTGCAC_site10755 (dsDNA)
DNA 1: TAATGCAACATTTATGTGCACATAAATATTTTTTAA
DNA 2: TTAAAAAATATTTATGTGCACATAAATGTTGCATTA
B30: GTGCAC_site9615 (dsDNA)
DNA 1: TTATTTTATTTTTTTGTGCACATATATATTTATAAA
DNA 2: TTTATAAATATATATGTGCACAAAAAAATAAAATAA
B31: GTGCAC_site9596 (dsDNA)
DNA 1: TATATTTTTATGTGTGTGCACAAAATAACAAAATAT
DNA 2: ATATTTTGTTATTTTGTGCACACACATAAAAATATA
B32: GTGCAC_site10770 (dsDNA)
DNA 1: TATATACATTTTTATGTGCACATTTTATTTTTAAAT
DNA 2: ATTTAAAAATAAAATGTGCACATAAAAATGTATATA
B33: GTGCAC_site10451 (dsDNA)
DNA 1: ATGTTATAATTTAGTGTGCACATATTAAGAGGAACA
DNA 2: TGTTCCTCTTAATATGTGCACACTAAATTATAACAT
B34: GTGCAC_site9630 (dsDNA)
DNA 1: TTTAATTTATATTTTGTGCACATCTTATTATATATA
DNA 2: TATATATAATAAGATGTGCACAAAATATAAATTAAA
B35: GTGCAC_site9812 (dsDNA)
DNA 1: TGTTTTATTTTTTTTGTGCACATACCTTTAGCATCA
DNA 2: TGATGCTAAAGGTATGTGCACAAAAAAAATAAAACA

In the first series the target is T1, SIP2 D1. The series can be described thus: gcPBM; about 25 ug protein; PBS, 1% milk, 0.2 mg/ml BSA, salmon testes DNA, 0.03% Triton X-100. Conditions: tags: N-terminal GST (pGEX-4T-1), kept; label: surface-attached array probe.
Take B1: the binding signal is 6.88 ln median PBM intensity, better of two orientations.
The same measure, in the same setting: under B2 stands 6.9 ln median PBM intensity, better of two orientations; under B3, 11.4 ln median PBM intensity, better of two orientations; under B4, 11.5 ln median PBM intensity, better of two orientations.
Still for that read-out and setting: next, B5: 6.92 ln median PBM intensity, better of two orientations; B6: 11.8 ln median PBM intensity, better of two orientations.
Consider B7, for which the binding signal was 11.1 ln median PBM intensity, better of two orientations.
The same measure, in the same setting: next, B8: 11.4 ln median PBM intensity, better of two orientations; B9: 6.91 ln median PBM intensity, better of two orientations; B10: 11.8 ln median PBM intensity, better of two orientations.
Same read-out and setting: under B11 stands 6.86 ln median PBM intensity, better of two orientations; under B12, 11.7 ln median PBM intensity, better of two orientations.
In the case of B13, the binding signal is 11.4 ln median PBM intensity, better of two orientations.
Turning to B14, the binding signal was 11.6 ln median PBM intensity, better of two orientations.
For B15, the binding signal is 11.7 ln median PBM intensity, better of two orientations.
The same measure, in the same setting: under B16 stands 6.9 ln median PBM intensity, better of two orientations; under B17, 6.91 ln median PBM intensity, better of two orientations; under B18, 10.6 ln median PBM intensity, better of two orientations.
Regarding B19, the binding signal was 11.6 ln median PBM intensity, better of two orientations.
On the same count and under the same terms, under B20 stands 6.83 ln median PBM intensity, better of two orientations; under B21, 6.83 ln median PBM intensity, better of two orientations.
Still for that read-out and setting: under B22 stands 6.86 ln median PBM intensity, better of two orientations; under B23, 6.87 ln median PBM intensity, better of two orientations; under B24, 10.6 ln median PBM intensity, better of two orientations.

The target in the next series is T2, HDP1 homeodomain-like. The series is described as above. Conditions: tags: N-terminal GST (pGEX-4T-1), kept; chain copies: 2; label: surface-attached array probe.
For B25, the binding signal was 11.4 ln median PBM intensity, better of two orientations.
B26: the binding signal is 11.5 ln median PBM intensity, better of two orientations.
On the same count and under the same terms, under B27 stands 11.6 ln median PBM intensity, better of two orientations; under B28, 11.5 ln median PBM intensity, better of two orientations.
Same read-out and setting: under B29 stands 11.4 ln median PBM intensity, better of two orientations; under B30, 11.9 ln median PBM intensity, better of two orientations; under B31, 11.4 ln median PBM intensity, better of two orientations.
On the same count and under the same terms, next, B32: 11.4 ln median PBM intensity, better of two orientations.
For B33, the binding signal was 11.4 ln median PBM intensity, better of two orientations.
Same read-out and setting: next, B34: 11.7 ln median PBM intensity, better of two orientations; B35: 11.4 ln median PBM intensity, better of two orientations.

The next series deals with AP2-I D3 (Plasmodium falciparum, UniProt Q8IJW6 910-1027). The description is as above. Conditions: tags: N-terminal GST (pGEX-4T-1), kept; label: surface-attached array probe.
As to B1, the binding signal is 6.98 ln median PBM intensity, better of two orientations.
Same read-out and setting: next, B2: 7.19 ln median PBM intensity, better of two orientations.
On to B3, for which the binding signal is 12.2 ln median PBM intensity, better of two orientations.
As to B4, the binding signal was 12.2 ln median PBM intensity, better of two orientations.
For B5, the binding signal is 7.09 ln median PBM intensity, better of two orientations.
For the molecule B6, the binding signal is 10.3 ln median PBM intensity, better of two orientations.
The same measure, in the same setting: next, B7: 11.7 ln median PBM intensity, better of two orientations; B8: 10.9 ln median PBM intensity, better of two orientations; B9: 7.24 ln median PBM intensity, better of two orientations.
For the molecule B10, the binding signal is 12.2 ln median PBM intensity, better of two orientations.
For the molecule B11, the binding signal was 7.11 ln median PBM intensity, better of two orientations.
With B12, the binding signal was 10.9 ln median PBM intensity, better of two orientations.
On to B13, for which the binding signal is 12.2 ln median PBM intensity, better of two orientations.
The same measure, in the same setting: next, B14: 12 ln median PBM intensity, better of two orientations; B15: 12.2 ln median PBM intensity, better of two orientations; B16: 7.05 ln median PBM intensity, better of two orientations.
On the same count and under the same terms, under B17 stands 6.92 ln median PBM intensity, better of two orientations; under B18, 9.77 ln median PBM intensity, better of two orientations; under B19, 11.1 ln median PBM intensity, better of two orientations.
On the same count and under the same terms, next, B20: 7.06 ln median PBM intensity, better of two orientations; B21: 7.28 ln median PBM intensity, better of two orientations.
Turning to B22, the binding signal is 7.19 ln median PBM intensity, better of two orientations.
On the same count and under the same terms, under B23 stands 7.08 ln median PBM intensity, better of two orientations; under B24, 12.3 ln median PBM intensity, better of two orientations.
